Source: US20080058636A1, “METHODS OF MYOCARDIAL IMAGING” (Epix Pharmaceuticals, Inc., priority 2005, published 2008)
Bridge positions count the residues as written; N and C are the ends. GdDTPA‑thiourea = GdT is GdDTPA-thiourea (Gd-DTPA chelate attached through a thiourea)

B1: Compound ID 807 (peptide)
peptide: {GdDTPA‑thiourea}-GQWHCTTRFPHHYCLYGK(GdDTPA‑thiourea)-NH2
modifications: disulfide 5-14
B2: Compound ID 845 (peptide)
chain: DWTCSGDEYRWHCNYE
B3: Compound ID 821 (peptide)
chain: DWTCSRDEYTWHCNYE
B4: Compound ID 829 (peptide)
chain: DWTCSYDEYTWHCNYE
B5: Compound ID 802 (peptide)
chain: KKWHCYTYFPHHYCLYG
B6: Compound ID 832 (peptide)
chain: GQWTCSGDEYAWHCNYE
B7: Compound ID 820 (peptide)
chain: GQWTCSGDAYTWHCAYE
B8: Compound ID 839 (peptide)
chain: GQWTCSGDEYTWHCAYE
B9: Compound ID 842 (peptide)
chain: DWTCSGDEYTWYCNYE
B10: Compound ID 838 (peptide)
chain: GQWTCSGDAYTWHCNYE
B11: Compound ID 836 (peptide)
chain: DWTCSSDEYTWHCNYE
B12: Compound ID 841 (peptide)
chain: GQWTCSGDEYTWHCNYA
B13: Compound ID 815 (peptide)
chain: GQWHCTTRFPHHYCKYG
B14: Compound ID 824 (peptide)
chain: PWTCSGDEYAWHCNYE
B15: Compound ID 822 (peptide)
chain: DWTCRGDEYTWHCNYE
B16: Compound ID 830 (peptide)
chain: GAWTCSGDEYTWHCNYE
B17: Compound ID 847 (peptide)
chain: DWTCSLDEYTWHCNYE
B18: Compound ID 835 (peptide)
chain: DWTCSADEYTWHCNYE
B19: Compound ID 823 (peptide)
chain: GQWTCSGDEYTWHCNY
B20: Compound ID 834 (peptide)
chain: DWTCSGDEYYWHCNYE
B21: Compound ID 826 (peptide)
chain: GQWTCYGDEYTWYCNYE
B22: Compound ID 833 (peptide)
chain: GQWTCSGDEYTWACNYE
B23: Compound ID 840 (peptide)
chain: GQWACSGDEYTWHCNYE

biological target: human collagen type I (acid soluble, extracted from placenta, Sigma C7774) (human) (UniProt P02452); assay: dried collagen assay, 5 uM each
Sequence (P02452 162-1218 limits assumed, chain 1 of 2): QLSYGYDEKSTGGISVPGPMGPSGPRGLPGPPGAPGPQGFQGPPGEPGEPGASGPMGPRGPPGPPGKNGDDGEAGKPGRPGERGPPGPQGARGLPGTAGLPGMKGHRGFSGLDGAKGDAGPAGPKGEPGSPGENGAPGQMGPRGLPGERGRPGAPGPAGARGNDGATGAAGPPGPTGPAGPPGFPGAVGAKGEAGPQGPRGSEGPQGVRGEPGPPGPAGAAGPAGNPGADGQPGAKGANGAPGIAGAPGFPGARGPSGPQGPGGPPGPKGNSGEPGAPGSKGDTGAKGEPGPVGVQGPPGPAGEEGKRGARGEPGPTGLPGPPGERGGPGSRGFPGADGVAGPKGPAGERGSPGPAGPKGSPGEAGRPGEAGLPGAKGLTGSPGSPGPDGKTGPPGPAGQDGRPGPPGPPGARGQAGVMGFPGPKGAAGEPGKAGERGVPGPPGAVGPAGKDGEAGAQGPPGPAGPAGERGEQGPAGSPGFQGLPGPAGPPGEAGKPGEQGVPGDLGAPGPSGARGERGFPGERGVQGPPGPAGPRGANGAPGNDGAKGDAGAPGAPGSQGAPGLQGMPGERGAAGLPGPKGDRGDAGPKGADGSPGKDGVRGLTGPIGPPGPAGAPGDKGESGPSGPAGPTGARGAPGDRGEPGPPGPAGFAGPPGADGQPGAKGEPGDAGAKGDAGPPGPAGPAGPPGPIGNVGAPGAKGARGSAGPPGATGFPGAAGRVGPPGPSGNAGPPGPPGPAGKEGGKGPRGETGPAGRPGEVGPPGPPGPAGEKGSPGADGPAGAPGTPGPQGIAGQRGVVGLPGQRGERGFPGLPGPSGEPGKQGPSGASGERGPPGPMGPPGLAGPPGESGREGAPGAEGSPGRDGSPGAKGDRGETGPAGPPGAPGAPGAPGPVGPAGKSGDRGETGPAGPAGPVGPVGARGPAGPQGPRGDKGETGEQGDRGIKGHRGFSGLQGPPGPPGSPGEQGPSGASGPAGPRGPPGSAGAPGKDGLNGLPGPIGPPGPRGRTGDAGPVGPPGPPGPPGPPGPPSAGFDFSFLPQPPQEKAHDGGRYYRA
Sequence (P08123 80-1119 limits assumed, chain 2 of 2, further chain): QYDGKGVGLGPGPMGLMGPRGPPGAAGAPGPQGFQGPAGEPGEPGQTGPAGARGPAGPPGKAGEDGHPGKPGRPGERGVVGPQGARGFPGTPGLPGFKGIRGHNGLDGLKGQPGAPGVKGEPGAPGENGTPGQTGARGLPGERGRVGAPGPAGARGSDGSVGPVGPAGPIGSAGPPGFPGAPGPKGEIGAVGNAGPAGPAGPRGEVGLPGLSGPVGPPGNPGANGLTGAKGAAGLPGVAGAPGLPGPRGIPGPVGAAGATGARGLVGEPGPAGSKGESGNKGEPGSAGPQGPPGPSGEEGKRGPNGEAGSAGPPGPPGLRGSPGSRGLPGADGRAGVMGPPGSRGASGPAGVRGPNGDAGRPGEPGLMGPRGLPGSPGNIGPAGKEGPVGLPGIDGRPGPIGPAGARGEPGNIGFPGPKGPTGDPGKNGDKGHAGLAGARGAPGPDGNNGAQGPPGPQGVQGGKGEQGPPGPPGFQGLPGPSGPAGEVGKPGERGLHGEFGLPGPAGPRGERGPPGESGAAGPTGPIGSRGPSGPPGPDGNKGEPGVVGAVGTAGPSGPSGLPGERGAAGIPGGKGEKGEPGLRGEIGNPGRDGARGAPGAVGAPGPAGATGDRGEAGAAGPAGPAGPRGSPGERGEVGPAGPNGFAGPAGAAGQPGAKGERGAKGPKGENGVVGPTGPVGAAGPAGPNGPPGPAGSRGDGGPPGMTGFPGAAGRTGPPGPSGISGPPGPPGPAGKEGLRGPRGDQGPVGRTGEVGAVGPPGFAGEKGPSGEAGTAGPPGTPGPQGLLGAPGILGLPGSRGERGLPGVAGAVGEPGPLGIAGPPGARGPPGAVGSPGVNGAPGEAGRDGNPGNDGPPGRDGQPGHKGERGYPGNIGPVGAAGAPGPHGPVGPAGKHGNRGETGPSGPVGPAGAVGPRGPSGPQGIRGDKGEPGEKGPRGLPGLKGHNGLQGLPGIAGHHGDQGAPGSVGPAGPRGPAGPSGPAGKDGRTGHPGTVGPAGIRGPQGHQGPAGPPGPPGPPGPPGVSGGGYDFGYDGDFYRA

Human binding [%]	Binder
48	B1
36	B2
56	B3
20	B4
57	B5
12	B6
60	B7
30	B8
23	B9
70	B10
13	B11
51	B12
66	B13
12	B14
47	B15
26	B16
16	B17
17	B18
53	B19
22	B20
87	B21
13	B22
15	B23

biological target: rat collagen (acid soluble, type I, rat tail, Upstate 08-115) (rat) (UniProt P02454); assay: dried collagen assay, 5 uM each
Sequence (P02454 152-1207, chain 1 of 2): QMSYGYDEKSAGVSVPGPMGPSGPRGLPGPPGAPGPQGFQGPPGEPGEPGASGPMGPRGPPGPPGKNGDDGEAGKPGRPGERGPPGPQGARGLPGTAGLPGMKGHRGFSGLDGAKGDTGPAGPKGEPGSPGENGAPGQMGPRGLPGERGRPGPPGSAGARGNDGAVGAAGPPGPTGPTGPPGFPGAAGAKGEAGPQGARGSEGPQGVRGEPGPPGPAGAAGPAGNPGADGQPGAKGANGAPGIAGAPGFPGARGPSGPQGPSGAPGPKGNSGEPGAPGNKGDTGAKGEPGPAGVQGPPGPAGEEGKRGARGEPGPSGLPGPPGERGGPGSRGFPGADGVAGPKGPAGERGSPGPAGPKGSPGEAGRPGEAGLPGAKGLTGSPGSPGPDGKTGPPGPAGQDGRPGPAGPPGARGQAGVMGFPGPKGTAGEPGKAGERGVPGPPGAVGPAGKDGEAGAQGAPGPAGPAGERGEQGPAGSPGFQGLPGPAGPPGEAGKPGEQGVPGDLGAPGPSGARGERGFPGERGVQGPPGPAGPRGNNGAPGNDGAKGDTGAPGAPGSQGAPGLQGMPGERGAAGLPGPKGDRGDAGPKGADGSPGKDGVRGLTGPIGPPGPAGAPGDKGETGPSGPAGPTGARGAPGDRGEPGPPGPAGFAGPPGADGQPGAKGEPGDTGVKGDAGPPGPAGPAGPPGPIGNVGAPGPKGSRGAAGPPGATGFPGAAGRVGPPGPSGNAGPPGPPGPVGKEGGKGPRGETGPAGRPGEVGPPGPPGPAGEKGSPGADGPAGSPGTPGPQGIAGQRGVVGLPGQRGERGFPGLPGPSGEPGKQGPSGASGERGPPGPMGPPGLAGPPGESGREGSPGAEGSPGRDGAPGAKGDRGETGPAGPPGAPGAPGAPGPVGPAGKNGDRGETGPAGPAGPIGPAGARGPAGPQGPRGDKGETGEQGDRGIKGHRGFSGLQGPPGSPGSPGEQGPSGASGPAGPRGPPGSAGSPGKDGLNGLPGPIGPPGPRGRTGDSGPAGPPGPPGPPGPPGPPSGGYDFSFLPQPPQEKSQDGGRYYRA
Sequence (P02466 86-1125, chain 2 of 2, further chain): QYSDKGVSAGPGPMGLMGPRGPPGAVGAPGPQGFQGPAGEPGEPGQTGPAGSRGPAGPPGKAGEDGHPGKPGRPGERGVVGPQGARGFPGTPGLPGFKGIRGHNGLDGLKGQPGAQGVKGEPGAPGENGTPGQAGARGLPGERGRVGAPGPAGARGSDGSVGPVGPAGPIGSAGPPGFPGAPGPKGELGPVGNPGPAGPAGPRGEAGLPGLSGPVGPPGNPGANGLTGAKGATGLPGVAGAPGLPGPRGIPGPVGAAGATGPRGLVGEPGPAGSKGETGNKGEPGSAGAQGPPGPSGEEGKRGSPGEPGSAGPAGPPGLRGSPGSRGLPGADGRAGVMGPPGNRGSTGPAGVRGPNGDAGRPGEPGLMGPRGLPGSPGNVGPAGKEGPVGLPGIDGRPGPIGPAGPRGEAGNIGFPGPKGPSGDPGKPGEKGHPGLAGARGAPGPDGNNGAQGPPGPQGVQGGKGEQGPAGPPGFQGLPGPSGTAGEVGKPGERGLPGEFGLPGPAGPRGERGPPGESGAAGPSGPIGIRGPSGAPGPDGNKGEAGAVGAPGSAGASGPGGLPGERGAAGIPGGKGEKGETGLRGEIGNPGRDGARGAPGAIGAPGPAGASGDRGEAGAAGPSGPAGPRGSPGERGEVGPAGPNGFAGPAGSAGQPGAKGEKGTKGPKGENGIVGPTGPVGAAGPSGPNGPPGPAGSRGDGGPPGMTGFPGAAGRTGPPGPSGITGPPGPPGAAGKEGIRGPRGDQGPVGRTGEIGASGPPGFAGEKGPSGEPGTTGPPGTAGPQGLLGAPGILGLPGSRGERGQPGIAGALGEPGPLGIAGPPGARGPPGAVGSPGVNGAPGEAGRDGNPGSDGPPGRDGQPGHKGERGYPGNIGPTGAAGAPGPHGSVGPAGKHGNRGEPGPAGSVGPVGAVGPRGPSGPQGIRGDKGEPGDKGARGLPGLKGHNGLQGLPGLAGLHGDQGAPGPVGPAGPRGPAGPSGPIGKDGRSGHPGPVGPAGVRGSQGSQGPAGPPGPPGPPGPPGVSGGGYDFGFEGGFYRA

Rat binding [%]	Binder
45	B1
10	B2
29	B3
21	B4
45	B5
4	B6
29	B7
11	B8
9	B9
61	B10
8	B11
28	B12
59	B13
0	B14
20	B15
11	B16
7	B17
9	B18
28	B19
9	B20
71	B21
4	B22
3	B23
